The target of experiment [1] is EMTB‐YFP‐CIBN (UniProt Q8GY61).
Experiment [2] addresses EMTB‐CFP‐FRB.
Experiment [3] deals with EMTB‐YFP‐CIBN (UniProt Q8GY61). This is another data set of the same source.
The target of experiment [4] is EMTB‐CFP‐FRB. This is another data set of the same source.

Consider mCh‐Cry2‐VAMP2, for which, in the experiment with EMTB‐YFP‐CIBN [1], the immobilisation of VAMP2-labelled vesicles under blue light (half time on) is 7 s and the return of VAMP2 vesicle mobility after blue light (half time off) was determined as 68.1 s.

On to TGN38‐mNeon‐FKBP, for which the motility of post-Golgi vesicles halted after rapamycin 100 nM (half time) with EMTB‐CFP‐FRB [2] stood at 9 s. Consider mNeon‐FKBP‐Rab37, for which the motility of exocytic vesicles halted after rapamycin 100 nM (half time) with EMTB‐CFP‐FRB [2] was 12.3 s. In the experiment with EMTB‐YFP‐CIBN [3], LAMP1‐mCh‐Cry2 returned an immobilisation of LAMP1-labelled lysosomes under blue light (half time on) of 6.2 s and a return of lysosome mobility after the end of blue light (half time off) of 68.8 s. For the substance mNeon‐FKBP‐VAMP2, in the experiment with EMTB‐CFP‐FRB [4], the immobilisation of VAMP2-labelled vesicles in COS7 cells after rapamycin 100 nM (half time) amounted to 19.2 s and the immobilisation of VAMP2-labelled vesicles in primary culture cortical neurons after rapamycin 100 nM (half time) is 13.6 s.

Substance LAMP1‐mNeon‐FKBP returned a motility of LAMP1-labelled lysosomes slowed after rapamycin (half time of the slowing) with EMTB‐CFP‐FRB [2] of 11 s. For the substance ACE2‐mNeon‐FKBP, in the experiment with LifeAct‐CFP‐FRB, the internalisation of SARS-CoV2 spike‐Alexa Fluor 647 into ACE2-positive HeLa cells after 2 h, rapamycin 100 nM against DMSO was 89%. In turn, mNeon‐FKBP‐IFT88 returned a movement of IFT88 particles along axonemes in cilia of NIH3T3 cells after rapamycin 100 nM with CFP‐FRB‐MAP4m of 20 s. In the experiment with EMTB‐CFP‐FRB [2], mNeon‐FKBP‐Rab5b registered a motility of endosomes halted after rapamycin 100 nM (half time) of 11.8 s.

For the substance mNeon‐FKBP‐Rab11b, the motility of recycling endosomes halted after rapamycin 100 nM (half time) with EMTB‐CFP‐FRB [2] is 12.5 s.

The values above are taken from PMC11615828.
